From patent US7494767 (FUNCTIONAL GENETICS, dated 2009) come the findings set out here.

First the molecules themselves.
T1: GAL4 activation domain-Tsg101 fusion protein (wild-type human Tsg101) (yeast; human, UniProt Q99816 1-390)
T1 construct: also called hTsg101; product of the human tumor susceptibility gene Tsg101
T1 sequence: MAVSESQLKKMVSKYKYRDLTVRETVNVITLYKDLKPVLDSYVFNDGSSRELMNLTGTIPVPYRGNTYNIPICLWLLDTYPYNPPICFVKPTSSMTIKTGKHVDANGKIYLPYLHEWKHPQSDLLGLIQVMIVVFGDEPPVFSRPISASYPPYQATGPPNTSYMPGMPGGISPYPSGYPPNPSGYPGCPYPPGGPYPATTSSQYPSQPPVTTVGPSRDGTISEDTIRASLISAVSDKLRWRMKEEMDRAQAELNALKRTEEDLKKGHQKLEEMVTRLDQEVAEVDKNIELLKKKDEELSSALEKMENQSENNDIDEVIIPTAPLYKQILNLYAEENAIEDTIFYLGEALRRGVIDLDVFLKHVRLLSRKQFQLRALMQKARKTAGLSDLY

T2: GAL4 activation domain-Tsg101 N-terminal 311-residue fragment (yeast; human, UniProt Q99816 1-311)
T2 construct: also called N-311
T2 sequence: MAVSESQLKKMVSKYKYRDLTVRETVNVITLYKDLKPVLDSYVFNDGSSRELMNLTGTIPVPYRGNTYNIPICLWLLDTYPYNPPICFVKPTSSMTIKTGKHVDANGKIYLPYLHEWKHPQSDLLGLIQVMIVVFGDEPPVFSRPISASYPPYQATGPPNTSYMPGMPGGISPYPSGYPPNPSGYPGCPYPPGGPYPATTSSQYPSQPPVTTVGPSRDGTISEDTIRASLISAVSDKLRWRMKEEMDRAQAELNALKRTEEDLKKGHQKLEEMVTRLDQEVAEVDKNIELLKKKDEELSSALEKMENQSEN

T3: GAL4 activation domain-Tsg101 fragment from aa139 to the C-terminus (yeast; human, UniProt Q99816 139-390)
T3 construct: also called 139-C
T3 sequence: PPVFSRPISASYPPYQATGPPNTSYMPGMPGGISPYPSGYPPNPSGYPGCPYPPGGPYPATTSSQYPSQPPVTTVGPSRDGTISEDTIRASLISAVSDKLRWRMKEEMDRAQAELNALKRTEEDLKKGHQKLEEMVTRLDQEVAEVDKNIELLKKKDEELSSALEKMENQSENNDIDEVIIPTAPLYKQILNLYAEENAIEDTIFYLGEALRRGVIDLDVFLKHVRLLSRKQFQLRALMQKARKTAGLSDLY

B1: GAL4 activation domain-Tsg101 N-terminal 155-residue fragment (other)
chain: MAVSESQLKKMVSKYKYRDLTVRETVNVITLYKDLKPVLDSYVFNDGSSRELMNLTGTIPVPYRGNTYNIPICLWLLDTYPYNPPICFVKPTSSMTIKTGKHVDANGKIYLPYLHEWKHPQSDLLGLIQVMIVVFGDEPPVFSRPISASYPPYQA
notes: also called N-155
B2: GAL4 activation domain-Tsg101 N-terminal 215-residue fragment (other)
chain: MAVSESQLKKMVSKYKYRDLTVRETVNVITLYKDLKPVLDSYVFNDGSSRELMNLTGTIPVPYRGNTYNIPICLWLLDTYPYNPPICFVKPTSSMTIKTGKHVDANGKIYLPYLHEWKHPQSDLLGLIQVMIVVFGDEPPVFSRPISASYPPYQATGPPNTSYMPGMPGGISPYPSGYPPNPSGYPGCPYPPGGPYPATTSSQYPSQPPVTTVGP
notes: also called N-215
B3: GAL4 activation domain-Tsg101 fragment 311-C (other)
chain: NNDIDEVIIPTAPLYKQILNLYAEENAIEDTIFYLGEALRRGVIDLDVFLKHVRLLSRKQFQLRALMQKARKTAGLSDLY
B4: GAL4 DNA-binding domain-p1-p6 fusion protein (other)
chain: MKLLSSIEQACDICRLKKLKCSKEKPKCAKCLKNNWECRYSPKTKRSPLTRAHLTEVESRLERLEQLFLLIFPREDLDMILKMDSLQDIKALLTGLFVQDNVNKDAVTDRLASVETDMPLTLRQHRISATSSSEESSNKGQRQLTVSGKIWPSYKGRPGNFLQSRPEPTAPPFLQSRPEPTAPPEESFRSGVETTTPPQKQEPIDKELYPLTSLRSLFGNDPSSQ
notes: also called pGBT9-p1p6; Gag^p6
B5: GAL4 DNA-binding domain-p1-p6 K493R (other)
chain: B4 chain with K206R
B6: GAL4 DNA-binding domain-p1-p6 K487,493R (other)
chain: B4 chain with K200R, K206R
B7: GAL4 activation domain-Tsg101 with Ala for 149Ser-Tyr150 (other)
chain: T1 sequence with S149A, Y150A
notes: also called mutation of 149Ser-Tyr150
B8: GAL4 activation domain-Tsg101 fragment 241-C (other)
chain: RMKEEMDRAQAELNALKRTEEDLKKGHQKLEEMVTRLDQEVAEVDKNIELLKKKDEELSSALEKMENQSENNDIDEVIIPTAPLYKQILNLYAEENAIEDTIFYLGEALRRGVIDLDVFLKHVRLLSRKQFQLRALMQKARKTAGLSDLY

The target in assay [1] is B4. Put plainly: yeast 2-hybrid.
The target in assay [2] is T1, GAL4 activation domain-Tsg101 fusion …. Nature of the assay: yeast 2-hybrid, LacZ reporter.
Assay [3] addresses T2, GAL4 activation domain-Tsg101 …. Nature of the assay: yeast 2-hybrid.
For assay [4], the target named is T3, GAL4 activation domain-Tsg101 fragment …. Nature of the assay: yeast 2-hybrid.
Assay [5] has as its target T1, GAL4 activation domain-Tsg101 fusion …. Put plainly: yeast 2-hybrid, β-galactosidase; p1-p6 variant with Tsg101.
The target of assay [6] is B4. Put plainly: yeast 2-hybrid, β-galactosidase; Tsg101 variant with p1-p6.

Substitutions are numbered along the chain they refer to. In names and notes the source's numbering stands.

With B1, in assay [1], the binding result is on record as “binds”.

For B2, in assay [1], the binding result was “binds”.

As for B3, the binding result in assay [1] is “no binding”.

As for B4, the results for the binding result in assay [2], in assay [3] and in assay [4] were “binds”, “binds” and “no binding”, respectively.

Regarding B5, in assay [5], the binding result is listed as “binds”.

For B6, in assay [5], the binding result is “binds”.

On to B7, for which, in assay [6], the binding result was “binds”.

On to B8, for which the binding result in assay [1] is “no binding”.
